Measured values taken from patent US20240262919A1 (SHANGHAITECH UNIVERSITY, published 2024).

Columns and labels:
Rhesus IL-18Rβ [1] = target: T1, Rhesus IL-18Rβ (rhesus, UniProt F7HHC1 20-356); test: SPR
T1 construct: also called rhesus IL-18 receptor beta; monkey IL-18Rβ
T1 sequence: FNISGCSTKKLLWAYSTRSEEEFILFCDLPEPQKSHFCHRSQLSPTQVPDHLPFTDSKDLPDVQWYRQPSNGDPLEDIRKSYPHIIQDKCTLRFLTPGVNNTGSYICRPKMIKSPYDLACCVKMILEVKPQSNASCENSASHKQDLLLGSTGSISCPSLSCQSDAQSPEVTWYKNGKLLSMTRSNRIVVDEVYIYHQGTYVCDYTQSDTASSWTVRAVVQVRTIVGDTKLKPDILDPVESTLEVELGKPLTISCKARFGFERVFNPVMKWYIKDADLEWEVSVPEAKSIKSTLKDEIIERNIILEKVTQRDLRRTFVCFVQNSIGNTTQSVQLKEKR

Rhesus IL-18Rβ [2] = target: T1, Rhesus IL-18Rβ; test: multipoint direct binding ELISA

B1: IgG 3131 (antibody, V domains shown)
VH: EVQLVESGGGLVQPGGSLRLSCAASGFNLYYSSMHWVRQAPGKGLEWVASIYSSYGYTYYADSVKGRFTISADTSKNTAYLQMNSLRAEDTAVYYCARSSFSHGYGWYGLDYWGQGTLVTVSS
VL: DIQMTQSPSSLSASVGDRVTITCRASQSVSSAVAWYQQKPGKAPKLLIYSASSLYSGVPSRFSGSRSGTDFTLTISSLQPEDFATYYCQQYGYHYAGLITFGQGTKVEIKR
notes: IgG made by sub-cloning the Fab CDR regions into IgG expression constructs; VL-CL with FLAG tag; also called I3131
- Kd (Rhesus IL-18Rβ [1]): 3.9 nM
- koff (Rhesus IL-18Rβ [1]): 0.00015 s⁻¹
- kon (Rhesus IL-18Rβ [1]): 38000 M⁻¹ s⁻¹
- EC50 (Rhesus IL-18Rβ [2]): 11.5 nM
